Assay: soluble on expression in E. coli; label from the status in PepcDB or PDB records

Sequence	soluble on expression in E. coli
MGSDKIHHHHHHMTEPTRHQEHETETQEADLPNVCVVTHPLAAAGENATRSLLDILSAITSVALVTADLPADSEIRDRHELVELTQKGAGDSVVIAAFRFLLNQLRMCRVIAGRDEDVVLFFGATSYLLPIVVTRLLGKTVLVEPRGDVPLTLRLNWEQQLPDQVAAVLAGAVRALERAGFAVAHGVITYTPEMARQLDLHPESPSVYPTGARYVRTNEFCVQRPYADRDRVVGFLGRLDEEKGVRELAAVATQLPDDITFRFVGDGDLREWLEEDLAADIEAGHVELTGWVDHDKVPHALNDLELLILPSQPTEGLPTTILEALACGTPVYASPVSGVPDVVRDEETGFTIDSRESTALAAGIERILDRNDLAAISENGRTLIEREYSFDAACERYRGILRSVAGYSS	not soluble
MGSDKIHHHHHHMTERFQQKNISVPDGIWIMKQTWNDVLFAHWPVDVSILRALVPSVLELDTYNGQAWISMLPFMLTNLRARYLPVIPGARAFPELNLRTYVTYKGKPGIYFFSLDADHRLAVLGARTFFHLPYFYADMKSEKNGDAIDYVSKRKNDKEAAFHAAYRPISAPFTAEKDSLDYWLTDDTGSTPLIAISSITKTSIIIRGCCKTPKQKFQSIR	not soluble
MGSDKIHHHHHHMTGLLSKHDFRVALQEAIAGKASAKAAFSQAWMDGTLQRHHFARWAENHYHYVGPFADYLGYIYNNARDEQDGVKDLLLQSMYEFRHLQEGEAMVSHTDLLIRFAQACGTTRERVESPQACNPITRGMQAWCYATAIRESPVVATAALLVGLASQIPQIYARQIVPLRDPRVYGFSEHEVAFFALRITSDGAHAERGYRIVLDGATTPALQQRCLQFVRWGAEMRYAYAQAIYDQYVAPDLGARRVD	not soluble
MGSDKIHHHHHHMTGQNPAPDEIVIDTGNPHPARMYDWFLGGKDNYPVDEEMGRQLLALDPRVPVMAKVNRAFMHRATRWLAMNGVRQFLDIGTGIPTEPNLHQIAQQVAPESRVVYCDNDPIVLAHAAALLRSTPEGVTEYVQADVRDPDTIVEQAGKVLDFSKPVALSLVALLHFVSDEDGAYELVDRLLAEVPSGSYLMLSHATADFTPKKSEEAGELYKARSLTLALRSRDEVARFFRDLELVEPGVEVPDKWRPELGEPVPGQDDEPIPGYAAVGRKP	not soluble
MGSDKIHHHHHHMTGRVVTVFGGSGSIGRQLVALLADQGARVRVAVRDTEKAHFLKPLGQLGQIAPISASVSDAASVKRAVEGADQVVNLVGILAESGRRTFQAVHVDGAATVARASAEAGVDALIHMSALGADEASDANYSKTKALGEKAVREAFPAATILRPSVVFGPDDGFFNLFAGLQRLSPVLPYFTRDGFRRGGSGVCGIDLAGSGGPKFQPVYVGDVARAMIAILDTPALRGKTYELGGPRVYSMKEIMDLVVAVTRRRTLVVPLPFWVARLQGRLLEKLPNPPLTSDQVRLMEVDNVCSGALPGLGDLGIEPEAAEAILPTYLSRFRGLDRHMILRGDGRPPKV	not soluble
MGSDKIHHHHHHMTGTESGASGGQPANSDDWDAVTARREAEALIIDVDGFEGPLDLLLTLSRTQKVDLRRISILALTEQYLVFIEKARQLRIELAADYLVMAAWLAFLKSKLLLPPEPGEEGPSGEDLAAHLAFQLERLAAMRDCAARLMAQDRLGRDRFVRGQTQAMTTNRKVIYTAGLLDLMQAYARIRTKDEFRPFVMDREAVLTMEEALDRLRGMVGYMGDWADLMSYLPDGWTTDPAKRRSAAAANFAAALELAKAGRVEIRQADTFSPIQLRRKEP	not soluble
MGSDKIHHHHHHMTIDLTPYLPSQGPKYLAIARALAEAIRQGELTPGTRLPPHRCLADALAVSVQTVSRAYAQAEKMGLVQARVGSGTWINTLDDSQEAEYLRSADLPTEGAPVDLSIAHPVCPPGHHLRFRETLREVADSAHPDAIDACRPIAGLAHQRERASHWLQETLGVPGTPDDRVLCNGAAHGVMLAIATLVQHGDVVLTEALTDHGLIALSRTLGLQLRGVAIDEQGVIPEALDAACRRYHPRAVCLTPTQHNPTGATMDADRRDAIAEVLARHGTWLIEDDTHALLEPPGLTPLTARLPRQSFHVTSLTKATVPGLRAGYLSVPRGQLHHTLPRLRATSWMATPLIFEIADRWLADGSVEALAEEQRQLLAERQQLTRSRLQGHVMASRPTGLHVWLALPRAWRAEELQQQALREGLAIATAQPFMVGQGAPPQRVRLSLGAENDLERFDQGLTILARLLGEAPPPMLQNV	not soluble
MGSDKIHHHHHHMTIIAGTVVKGKQLGRKLGFPTANVDAKIHGLRNGVYGVLATVNHQFHLGVMNIGVKPTVGSNLEKTLEIFLFDFHRDIYGEKIECSILFKIREERRFDSLESLTKQIKKDISCVAKRFELIGIMAPNKKESLLSHQELNLPDLCFYKKCNNLYGVNRGVYNVIDNWFFEYGITQVAYRRIYILSFLSFLKEDNPKVSSKYIRFGAGGLADKLNRFISSYVEESEENILG	not soluble
MGSDKIHHHHHHMTILSDVKALGQQIWLDNLSRSLVQSGELAQMLKQGVCGVTSNPAIFQKAFAGDALYADEVAALKRQNLSPKQRYETMAVADVRAACDVCLAEHESTGGKTGFVSLEVSPELAKDAQGTVEEARRLHAAIARKNAMIKVPATDAGIDALETLVSDGISVNLTLLFSRAQTLKAYAAYARGIAKRLAAGQSVAHIQVVASFFISRVDSALDATLPDRLKGKTAIALAKAAYQDWEQYFTAPEFAALEAQGANRVQLLWASTGVKNPAYPDTLYVDSLIGVHTVNTVPDATLKAFIDHGTAKATLTESADEARARLAEIAALGIDVETLAARLQEDGLKQFEEAFEKLLAPLV	not soluble
MGSDKIHHHHHHMTIQIDLPETSTNKIIYSDECKDILNLSVAKIQEMFKSSGIILFRGFGITHELMQVFAEQFSSRLTRDDDKPLVEPNGFVSLVDIGMHEILPHRENGSSPFSPDAVWFCCTVPAAEGGETLFWDGIQVWQKLSEELRKLFISKKIKFVHKFPADKWKHFLGSDATISDAKRVLDGFNNVKYQIDQEESIYTEYICSAVLQTKYGNQNAFVNDIITGNSNLKGSVNLELESALTFEDGSLIPDAAIEEIEKVMYSLTQEIRWKPGDLVMIDNSRFLHGRRAFSDNRRRLFSLLSYLNF	not soluble
MGSDKIHHHHHHMTIRGKAYIAGIYEHPTRHAPDKSIAQLHAEVAKGALDDAGLTKADIDGYFCAGDAPGGVMAMVDYLGLKVRHFDSTDTGGCSYLVHLGHAAEAIAAGRCSVALITLAGKPRTGALPPRPVGAEGDFELAYGATTHNVYAMCAARHMHQYGTTSEQLAWIKVAASHHAQYNEHAMLRDVVTVEDVLNSPLIADPLHRMDCCVVTDGGGALIVTTEEIARSLKKPLVRMIGAGEAIKGPRGGHNLDLTYSAGVWSAPPAFEMAGVTPKDIKYASIYDSFTITVLMQLEDLGFCEKGQGGKFVADGNLISGVGKLPFNTDGGGLCSNHPVNRGGMTKLLEAVRQLRGEAHPKVQVPNCDLAIAHGTGGMLGIRHAASTCILERV	not soluble
MGSDKIHHHHHHMTISAQCNLQKLAFATTLAVTIVLSQGRAIGQVKHGSPIELAKADVSTAVRQDMANEVRIVGSLTPIRRSTLTSRVSSTIIELPVQIGDVVNAGDLLVRFERGALESAVTGRKAEADALSAQTELAEAVLERNTRLGERGAASEATRLAALADVLDLRAQLRSKQAEVSDAERSLSHAEVRAEFGGVIAARSVEEGQTVPLNTQLMTIVELNRLEVDAGVPTSRIPLIRLKQSVELTVEGFPGRTFSGEVARISPTADAGSRAVRVFIAVDNEEGLLRGGMFTIGDLRVDDQKDVIALPAASIRHDADGFFVLKVEAGVLQRRPVGLGRSWSDRDLVQVSGVSEGDVIVTAPLPDLVVNTPVIIEGI	not soluble
MGSDKIHHHHHHMTKEQSYPPTCIDCGTQNCKFKERTYPEFCLTTHLEQEDLEWALKQYNDNNKIMAASAEVEYEGYCRLTRVEEIMTFARKMGYKKLGIAYCIGLVNEARIFARILRANGFEVYSVICKVAGIAKSSIGIPKECEKIGAAMCNPILQARLLNQAYTELNVVIGLCVGHDSLFYKYSNAYTTTLVTKDRVTGHNPAAALYTANSYYRKKLMPEGEQSK	not soluble
MGSDKIHHHHHHMTKFIVDSSYWNLFPTSKIGVILIKDYHMDRNLETELKQLLSDSHSLAKKYLQEKEFSQNRVIQTYRKAYQTFKTKKGARSSIEALLKRVNSGNEITSINPLVDIYNAASLRFGLPIGAEDSDTFRGDLKLTITNGGDEFYLIGEDFNRPTLSGELAYVDDVGAVCRCFNWRDGKRTMITDNTQNAFLVIELIDNGREIIFKEALDFIATNTNRFLKAKTQTIILDKEHSEITL	not soluble
MGSDKIHHHHHHMTKPFYWNELNTYDFASLSPDSTIAVLPIASTEQHGPHLPIATDVAIANGMLAELKRQRPDDLNFLVLPTQEIGKANEHVYGPGTLSLSADLLIAAWTAIGAKVAEAGLRKLVIVNSHGGNVDIMSIVGRELRVRHKMAVVSTQWSRFGNPEGMISEHENRYGIHGGEVETSLMLHFRPELVRMDKAENFVSKAEWMKERSDFLQPLPPHSLAWIAHDLNPAGVVGDASKGTAEKGEAICRHQVSGFIQLLRDVRDYPLSALYSPE	not soluble
MGSDKIHHHHHHMTKRDPSTLIRIARENGAEAEAEPLDLGARVRELRKARDWTLEQAASQAGLARSTLSKIENGQMSPTYDALKKLAVGLQISVPQLFTPPQKGQVNGRMTVTKSGSGSGHATATYEHELLADSLTKKQMLPYRARVRARAMEEFDGWVRHDGEEFLYVLTGVIRLYTEFYEPIEMRRGDSAYYDASMGHNVVSVSDEDATILWVTSLV	not soluble
MGSDKIHHHHHHMTKSKISNPKLPMALQTSTIFSLQAPKDISLNEIDAELNQIWQSYGITGEDGGLPSATRATTFTLVVYEPEETQYLLAALGFYNGPIDGILGPQMAAALREVQKKHKLPETGTATQETLTILREEFAKGQRGGTGGEHAIAGLNSSSPRIADEIALRNPCRIIALFPITGEDEGVKAQVSAYCPIQKQSSSTLICCEYITLSGTAAALERIGGMIPALLIGGLPKFLWWKATPDPNNGLFKRLAAICNNVIVDSCNFNEPESDLLRLEELVEAGVPLADLNWRRLASWQELTAEAYDSPKRRAALREIDRVTIDYEKGNPAQALLFLGWLASRLEWQPVSYQKESGDYDITRIHFISQDQRQVEAELAGVPVADVGDIIGDLIALRLSSTNPQADCGTVICSETGGCMRMETHGGAQSAGLFQQVTSLSEQKAEALLSQQVQRWGRESLFEESLGVTANIFKLAN	not soluble
MGSDKIHHHHHHMTLDNPVANKFSIAASQYKQHDVLQRITAKQLLDNAPLFGTLLDVGAGPGTSFNAFNDVEQVVAVDIAHGMLNQLTKQYPDYLPICSDAQALGLQSASIDSIYSNLALQWCQNLPEAFAEFHRVLRQNGECYLSVVVDGSLAELKTLGFRVNQFNSVSAIKAAFIASQDSPNDWLNIDIQVKSISVYFDDLRSLLYSIKGVGASFAQQGENNATHHHPLTKQQWQQRIALAETMRTDKGIPLTYQIAYIRAKRG	not soluble
MGSDKIHHHHHHMTNSIMALPSSIRHYRRKQMAINQVAQTPAISPLTIKERTGSISTAEMISVLKGETTALHIKQAFSTEVAEEITTNFLGSPGLKERKDGVPGQYVGASHYRKDAATYFAESETARPHVDALFENLVDPVRGSFDALKRELHKQGIELRLARSEHGHANVCRALSWSGSGTFSLDPHDDVAQVLSAGNDYELSAVAHNTVAALNFYPSMPEEGGNLRLWSHKPTVADRKSQGVETTGYPYSSAYLEAVPCREFQLKPGDIALIDGGFVHGVTGQSGNGKRRLVLNSFFGFARPDLVLWWT	not soluble
MGSDKIHHHHHHMTNWNLWRTLNMEYIINPCSGIKIKITRGQKIKIVDIEGGQVVDFFAEMKDDSTEFISPGVTIDCNESLRLQVGNLIYSNKYRPMFKILYDDVREHDLLHPCCRPEMYDFFYHNGENHPNCFDNINRTLGTSHQIIHPINFFMYTKVNTDGSIEVCEPLSKANDKIILEALENMTLGIAACSVSESSCNSRKCTSIKILVD	not soluble
